Reference: the RNAGym collection of RNA variant scans (doi:10.1073/pnas.2313332121)
Fewer inactive variants are shown than the library holds.

B1: TPR 5TU (parent)
chain: GGAUCUUCUCGAUCUAACAAAAAAGACAAAUCUGCCACAAAGCUUGAGAGCAUCUUCGGAUGCAGAGGCGGCAGCCUUCGGUGGCGCGAUAGCGCCAACGUUCUCAACUAUGACACGCAAAACGCGUGCUCCGUUGAAUGGAGUUUAUCAUG

Variants of: B1
Assay: polymerase ribozyme fitness, log enrichment relative to wild type (log ratio); higher = more active; in vitro selection for triplet polymerase activity
Method in brief: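 To select mutant libraries of each subunit of a heterodimeric triplet polymerase ribozyme, built by PCR and transcribed, each was annealed with a biotinylated primer, partner subunit and triplets, then incubated frozen at −7 °C. Extended constructs were gel-excised, captured on streptavidin beads and amplified by RT-PCR, in one round carried out in triplicate. Illumina sequencing of input and output libraries kept genotypes with ≥10 input reads and ≥1 read per output. Fitness is the base-2 logarithm of genotype enrichment relative to wild-type enrichment, from inverse-variance-weighted replicate averages.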

Row | Variant | polymerase ribozyme fitness (log ratio)
1 | A30C U31A U44A U55A C57G C76G | ≤ -4.2
2 | G84C U102A A147U | -3.01
3 | C54U G86U A150U | -0.319
4 | A24U A52U C95U | -1.25
5 | C79G C85A C114U | ≤ -4.2
6 | C85U C95A | -0.427
7 | A22G C85U C114A U139G | -3.14
8 | A12G A19C A29U C129G | ≤ -4.2
9 | A12U G25U A52C U56A G67A A91G C103G | ≤ -4.2
10 | C5G G46C G50C C129U U134C C149U | ≤ -4.2
11 | A28U G94A | ≤ -4.2
12 | C8U A20C G50A U82G C93U C95U A142G | ≤ -4.2
13 | C129A G133C | -3.55
14 | A52C U78A C96A U144G | ≤ -4.2
15 | A24U A98G | 0.444
16 | U6A C69U | -1.1
17 | G59A U77C | -3.69
18 | A40G C85A G133U | ≤ -4.2
19 | A73G C87G G88C G124C U127G G143C U144A | ≤ -4.2
20 | C51U A52C | -1.33
21 | A47U U148C | -2.46
22 | C5G C43U A73U G92U U134A U144C | ≤ -4.2
23 | A121U U127C G143C | -4.06
24 | C14G G80U G84U C132A | ≤ -4.2

Row | Variant | polymerase ribozyme fitness (log ratio)
25 | A21U A26U A40U | -3.62
26 | U53A C95U U104G A115U C123U | -3.81
27 | C5U A20G A49U G86U | -3.71
28 | A12C A37C G50A C79G A98G | ≤ -4.2
29 | C14A G141C | -1.87
30 | C51G G88A A91G A115U U144G U151C | ≤ -4.2
31 | C35U G50A U53A U56A C85A C93A C95U | ≤ -4.2
32 | C85U U135C | -2.09
33 | U6G A16G C85U C125A | -1.05
34 | A37U A98U | -0.971
35 | A21U A73G C79G G84U C149G | ≤ -4.2
36 | A37G G136A U146C | -1.88
37 | A30G A60C A110G A113U A150G | ≤ -4.2
38 | U45G A47U U56A G67C A89U C96A A97G A138C | ≤ -4.2
39 | U55G C85G G88U G92U C108U | ≤ -4.2
40 | U55A C76G U134G | ≤ -4.2
41 | A122U G136U | -2.24
42 | G42U C76A C93U C96U U145C | ≤ -4.2
43 | U45A A49G C57A U61G G68U C114U A150U | ≤ -4.2
44 | C35U U56A | 0.225
45 | A49C C75A G86U G143C | -4.19
46 | A37U C57U U101G | -0.608
47 | A40C G42A A52U G81C G84U A97C C118U | ≤ -4.2
48 | C38A A52G C63A | -1.26

Row | Variant | polymerase ribozyme fitness (log ratio)
49 | C43U A52C G83U A91U | ≤ -4.2
50 | C93U | -1.34
51 | C38A C69G C93U U139A | ≤ -4.2
52 | G48U C85U G117U A122U | 0.609
53 | A22G C123A A147U | 1.6
54 | C69U C95U U101G G152C | -3.5
55 | C5A C36G A49C U61A G84A | ≤ -4.2
56 | G46U U53A U90C | ≤ -4.2
57 | A49C U82A C85U G88A G92U G133A G141U | ≤ -4.2
58 | U56A A73U G140A | -4.06
59 | C57A G58C G84A A91G | -3.28
60 | C63U C79U G88C U90G C95A C99U A107U | ≤ -4.2
61 | C57G G83U A147U | 0.219
62 | C116U C118G | 0.0696
63 | A23C A26C A52U C63A C131U G141U U145C | ≤ -4.2
64 | C85U C95A G117C | -0.698
65 | G59A C85G G92U C95A C116A U127G | ≤ -4.2
66 | C54U A60G A64G C85U C99A C105U A106C | ≤ -4.2
67 | G70C G81A C96A C108U A120G A138C | ≤ -4.2
68 | A3C U56A C69U A91U | ≤ -4.2
69 | C54A G83U U134A U148C | ≤ -4.2
70 | U6G A73G C87U G136U | -2.92
71 | C5A A24U C36U G86A C87A U90G C93A | ≤ -4.2
72 | G25U U31A A64C U90A G124A | ≤ -4.2

Row | Variant | polymerase ribozyme fitness (log ratio)
73 | C14G G50U C87A G112C C123U U148G | ≤ -4.2
74 | C85A C103A | -4.12
75 | C32U A40C | -4.1
76 | U56A A73U C76A A97U | ≤ -4.2
77 | A3U A73G C79G C93A C116U G117U A138U | ≤ -4.2
78 | C5A C10G C85A C118G | -3.84
79 | A17U U61G C76G | ≤ -4.2
80 | C18U A26C C38U U78G A98U U145G U151A | ≤ -4.2
81 | A60G A113G C114U U135A | -3.05
82 | A3C A23U G50C U55A C105U C116U C125U | ≤ -4.2
83 | C51A G65A G81U C96G A106U G136U | ≤ -4.2
84 | C85G G117A | -2.7
85 | C76U C85G C125U U139G | ≤ -4.2
86 | G50U G58A G84U C105U G133A G141C | ≤ -4.2
87 | A3G U6A U33G G50A C79U C129A | ≤ -4.2
88 | A23U C54G U61A C72A G86A G141A | ≤ -4.2
89 | A28U A41C C54A A60C C96A C105U A106U | ≤ -4.2
90 | A17C U56A | 0.36
91 | U56A G128A | -3.15
92 | A73U C79G A107U A113C | ≤ -4.2
93 | C116U G141A U146C | 0.219
94 | A3G U53A C54U C95U | -1.48
95 | C10U A60G | -2.5
96 | C85A C103A C125A | -3.33

Row | Variant | polymerase ribozyme fitness (log ratio)
97 | G34A G71A G88C A91C | ≤ -4.2
98 | G50U C85A A97U G140A | ≤ -4.2
99 | C96U G128U A147C | -3.7
100 | A121U U135A | -0.658
101 | G50A A122U A137G | -2.6
102 | U55A G59A C116A | 2.35
103 | G80C G88C C103A A122U A138G | ≤ -4.2
104 | A19G A49U U55A C96U | -1.84
105 | A26U A107G G141A | ≤ -4.2
106 | A22G U53G C54G U55C A73G A91C C105U C116U U127G U135C | ≤ -4.2
107 | G62U G65A C103A | -3.94
108 | C63G G92A U145G | -2.07
109 | C36U G59A G94U A107C G133C G140U U144G | ≤ -4.2
110 | A22G U109G | -0.357
111 | U55A G92U G124C | -0.918
112 | C35G G126U | -4.16
113 | G46C A47C G48A U82C | ≤ -4.2
114 | U82A C105U | 0.242
115 | C95U C96G | -0.577
116 | C27A A41U C116U G136C U144A | ≤ -4.2
117 | G80U C93G | -2.97
118 | A37U G81U C85U A137C | ≤ -4.2
119 | A52G C95A C99A | -1.54
120 | U45A G84A U148A | ≤ -4.2

Row | Variant | polymerase ribozyme fitness (log ratio)
121 | A22U C43A C57G C93U C96U | ≤ -4.2
122 | G81A A120G U148C | -2.99
123 | A26U U45A A47C U61G C79G G80U A122G C129G | ≤ -4.2
124 | U4G C99U | -0.868
125 | A3G U6A A40G C87A | ≤ -4.2
126 | A12C C36U C85U A147U | -1.81
127 | G50A G83A C87A A91C G92A U146A | ≤ -4.2
128 | G50U G58U | 0.771
129 | G84A G117A C129A | -2.45
130 | G140U U145C | -3.66
131 | C69A C95A C96G G152U | -3.59
132 | A20C G80A U82A C93U A98C | -2.56
133 | U31C U45C A49U G80A C114A U130C U134A | ≤ -4.2
134 | U4C U53A C76G U90C U145C | ≤ -4.2
135 | A16C A20U A40U C54U G58U A60C | -4.15
136 | A24C G58A G112U A122G | ≤ -4.2
137 | G46C U55A | -0.931
138 | C75G C87U | -3.2
139 | U82A A107C | -3.72
140 | C14U U56G U78C G86U | -4.1
141 | A19U G68C C85U | ≤ -4.2
142 | A21G C69G U82A C87U | -1.28
143 | A49U A91G U130A A138U | ≤ -4.2
144 | U7G A17C A142U U146C | -3.89

Row | Variant | polymerase ribozyme fitness (log ratio)
145 | U55A A97G C116A | 1.12
146 | C8U A20C G50C G71A C96A A98G C114U U148C | ≤ -4.2
147 | G46U C63G G94U U101G A137G A147C | ≤ -4.2
148 | U13C C14G G88A | -4
149 | C76A G92C A98U A142U | -2.32
150 | A22C G46A C76U | ≤ -4.2
151 | C18G C32G U55A G83U G88U A113C A138C | ≤ -4.2
152 | G48A U53A C85U C118U | -2.36
153 | A52G C75U | -0.679
154 | C38A C131G U146C U151A | ≤ -4.2
155 | C14A A21C A64G C75U C76G C85U C105U A120U | ≤ -4.2
156 | G25A A41U C43U C54U U55A G70A G92A G133U U139G | ≤ -4.2
157 | C8A U33C U44A A52U C85U U104A A106G C125G G152U | ≤ -4.2
158 | A52C C87A C93U A98U G128U U148G | ≤ -4.2
159 | A91U U148C | -4.1
160 | C27U A41C A73G C75U C93A | ≤ -4.2
161 | A41U C85A | -3.35
162 | U13C U56A C72U C93A C96U | -3.76
163 | A52C U55A C131G | ≤ -4.2
164 | C32U C96U C149U U151A | ≤ -4.2
165 | C36U G92C G100U G117A A122G | ≤ -4.2
166 | G94A A119C C132G A138U | ≤ -4.2
167 | A28G A37C A41C C69A C85U G133C | ≤ -4.2
